Legend:
Experiment in all cases: ELISA: 500 ng peptide coated per well, 29E4 at 40 ng/mL, HRP goat anti-rabbit Ig 1:16,000, ABS 450 nm, duplicates [CONT. 2]
[1] = molecular target: T1, P2 (alanine substituted, FIG. 3 panel E)
T1 construct: not the overlapping peptide P2 of panel A; also called Q212 to alanine
From the text: (§1) HRP Goat anti-rabbit Ig was applied at 1:16,000 dilution in all reactions.
(§2) Peptides were synthesized to achieve ≥70% HPLC purity by a commercial vendor (GenScript Biotech, Piscataway, NJ). Peptides were reconstituted in either water, or with addition of acetonitrile, methanol, 10% acetic acid, or DMSO, depending on the overall charge of each peptide. Key residues required for mAb binding were probed by ELISA using overlapping peptides, truncated peptides and alanine substituted peptides. Reactions were performed in duplicate using NUNC 96-well flatbottom MaxiSorp plates (Thermo Scientific). After coating each well with 500 ng of peptide in 100 μL coating buffer (50 mM NaHCO₃, pH 9.6), the plates were sealed and incubated at 4° C. overnight. […] Plates were then washed once with wash buffer, incubated with 100 μL mAb 29E4 (serially diluted from 1 mg/mL) for 1 hour at 37° C. Plates were further washed four times with wash buffer, and then incubated at 37° C. with 100 μL of a horse radish peroxidase (HRP)-conjugated secondary antibody against the primary antibody, diluted 1:16,000 according to manufacturer's protocols (KPL, Inc., Gaithersburg, MD). After washing four times with wash buffer, 100 μL of K-Blue Aqueous TMB substrate (Neogen, Lexington, KY) was added to the plates and incubated uncovered for 30 minutes at room temperature. To stop the reaction, 100 μL of 2 N Sulphuric acid was added to each well and absorbance were measured immediately at 450 nm. All dilutions of reagents were performed in ELISA diluent (20% NGS in 1×PBS with 0.1% Triton-X 100).

[2] = molecular target: T2, P3 (alanine substituted, FIG. 3 panel E)
T2 construct: not the overlapping peptide P3 of panel A; also called R213 to alanine
T2 sequence (peptide, as listed by the source): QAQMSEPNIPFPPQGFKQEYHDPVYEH
From the text: as §1, §2

[3] = molecular target: T3, P6 (alanine substituted, FIG. 3 panel E)
T3 construct: not the overlapping peptide P6 of panel A; also called S216 to alanine
T3 sequence (peptide, as listed by the source): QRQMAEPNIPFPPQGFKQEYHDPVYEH
From the text: as §1, §2

[4] = molecular target: T4, P8 (alanine substituted, FIG. 3 panel E)
T4 construct: also called P218 to alanine
T4 sequence (peptide, as listed by the source): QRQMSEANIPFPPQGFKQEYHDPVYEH
From the text: as §1, §2

[5] = molecular target: T5, P14 (alanine substituted, FIG. 3 panel E)
T5 construct: also called P224 to alanine
T5 sequence (peptide, as listed by the source): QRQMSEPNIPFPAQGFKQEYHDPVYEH
From the text: as §1, §2

[6] = molecular target: T6, P15 (alanine substituted, FIG. 3 panel E)
T6 construct: also called Q225 to alanine
T6 sequence (peptide, as listed by the source): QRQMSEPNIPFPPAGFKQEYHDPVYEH
From the text: as §1, §2

[7] = molecular target: T7, P16 (alanine substituted, FIG. 3 panel E)
T7 construct: also called G226 to alanine
T7 sequence (peptide, as listed by the source): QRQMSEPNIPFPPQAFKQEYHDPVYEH
From the text: as §1, §2

[8] = molecular target: T8, P18 (alanine substituted, FIG. 3 panel E)
T8 construct: also called K228 to alanine
T8 sequence (peptide, as listed by the source): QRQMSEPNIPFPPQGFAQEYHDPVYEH
From the text: as §1, §2

[9] = molecular target: T9, P19 (alanine substituted, FIG. 3 panel E)
T9 construct: also called Q229 to alanine
T9 sequence (peptide, as listed by the source): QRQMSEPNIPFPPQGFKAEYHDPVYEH
From the text: as §1, §2

[10] = molecular target: T10, P21 (alanine substituted, FIG. 3 panel E)
T10 construct: also called Y231 to alanine
T10 sequence (peptide, as listed by the source): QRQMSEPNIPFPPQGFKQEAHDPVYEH
From the text: as §1, §2

[11] = molecular target: T11, P23 (alanine substituted, FIG. 3 panel E)
T11 construct: also called D233 to alanine
T11 sequence (peptide, as listed by the source): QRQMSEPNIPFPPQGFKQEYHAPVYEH
From the text: as §1, §2

[12] = molecular target: T12, P25 (alanine substituted, FIG. 3 panel E)
T12 construct: also called V235 to alanine
T12 sequence (peptide, as listed by the source): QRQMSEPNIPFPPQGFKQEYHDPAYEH
From the text: as §1, §2

[13] = molecular target: T13, P26 (alanine substituted, FIG. 3 panel E)
T13 construct: also called Y236 to alanine
T13 sequence (peptide, as listed by the source): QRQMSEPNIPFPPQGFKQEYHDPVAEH
From the text: as §1, §2

[14] = molecular target: T14, P27 (alanine substituted, FIG. 3 panel E)
T14 construct: also called E237 to alanine
T14 sequence (peptide, as listed by the source): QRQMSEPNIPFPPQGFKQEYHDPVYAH
From the text: as §1, §2

[15] = molecular target: T15, P28 (alanine substituted, FIG. 3 panel E)
T15 construct: also called H238 to alanine
T15 sequence (peptide, as listed by the source): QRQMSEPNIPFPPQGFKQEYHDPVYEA
From the text: as §1, §2

T1 sequence (peptide, as listed by the source): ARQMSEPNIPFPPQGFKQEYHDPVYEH

- binding result [1]: binds
- binding result [2]: binds
- binding result [3]: binds
- binding result [4]: binds
- binding result [5]: binds
- binding result [6]: binds
- binding result [7]: binds
- binding result [8]: binds
- binding result [9]: binds
- binding result [10]: binds
- binding result [11]: binds
- binding result [12]: binds
- binding result [13]: binds
- binding result [14]: binds
- binding result [15]: binds
B1: ETV1 rabbit monoclonal antibody (29E4) (antibody, V domains shown)
VH: QELEESGGDLVKPGASLTLTCTASGFFFSAENHICWVRQAPGKGLEWIGCVYIGSYVGGSGDPYYASWAKGRFTISKTSSTTVTLQMSSLTAADTATYFCARDLGSLWGPGTLVTVSS
VL: DVVMTQTASSVSAAVGGTVTIACQSSQSVYDNNNLAWFQQKPGQPPKRLIYSASTLASGVSSRFKGSGYGTQFTLTISDVQCDDAATYYCVGAFSGYIFVFGGGTEVVVK
notes: constant regions are not; also called 29E4 mAb; ETV1 29E4 mAb

From patent US20260227403A1 (HENRY M JACKSON FOUNDATION FOR THE ADVANCEMENT OF MILITARY …, published 2026)
